What was measured:
[1] = test system: MV4-11 cells; assay: Digital spatial imaging of bone and spleen of MV4-11 CDX mice; format: in vivo, NSG mice
Text: FIGS. 6A-6D display LAIR-1 signaling restricts AML survival signaling pathways in vivo. […] N=3 mice per group. […] N=6 mice per group. FIG. 6C is representative images of CDX mouse bones stained with DAPI and anti-human CD45 used to quantify the number of MV4-11 cells in the indicated region of interest (ROI) (highlighted). ROI area is equal between samples. […] Read counts are normalized to Histone H3 and ribosomal protein S6. N=3-11 quantified tissue regions across 2 isotype-treated or 2 LAIR-1 mAb-treated mice. Error bars represent standard error of mean. P values determined by Student's T test.
Protocols and reagents from NanoString were used for GeoMx digital spatial imaging (DSP). Briefly, formalin-fixed paraffin-embedded (FFPE) sections of tumor and spleen were deparaffinized and rehydrated, antigen-retrieved in citrate buffer, blocked, and stained with the Human Immune Profiling Core and Cell Death Panel overnight at 37 degrees C. Anti-HCD45-Alexaflour 647 antibody (NBP2-34528AF647 from Novus Biologicals, Centennial, CO) was used as a morphology marker at 5 μg/mL to identify MV4-11 cells. After washing, slides were fixed in 4% paraformaldehyde and nuclei were stained with Syto13. Slides were scanned and regions of interest (human CD45 regions) were acquired on a GeoMx DSP instrument (Nanostring, Seattle, WA). Approximately 5 regions of interest (ROIs) were collected per tissue, and samples were multi-plexed and processed on the nCounter Prep Station and Digital Analyzer as recommended. Data were analyzed on DSP Analysis software. Following quality control, data were normalized to housekeeping genes, and statistics were performed using a linear mixed model with a Benjamin-Hochberg correction.

[2] = test system: healthy human primary immune cells; assay: Effect on healthy human immune cells in mice reconstituted with human CD34 cells; format: in vivo, NSG-SGM3 mice
Procedure: NSG-SGM3 mice were purchased from Jackson Laboratory. Mice were engrafted with CD34+ cord blood cells donor #2523. Mice treated weekly beginning 18 weeks after engraftment with anti-human LAIR-1 mAb clone 11B3 in human G1 or G4P format, or control at 100 μg/mouse (5 mg/kg) for 4 weeks. Bleed at weeks 2 (1 day prior to 2nd dose) and 4 (one day prior to 4th dose) for circulating immune cells. Mice were sacrificed 1 week after final dose for analysis of spleen, LN and bone marrow. FIGS. 35A-35B show total body weight and survival of NSG-SGM3 mice reconstituted with human CD34+ cord blood cells and treated 11B3 antibodies. FIGS. 35C-35G show time-course follow-up of the changes in the immune cell numbers in the blood collected from NSG-SGM3 reconstituted with human CD34+ cord blood cells. FIGS. 35H-35I show Analysis of immune cell numbers in the spleen and bone marrow collected from NSG-SGM3 reconstituted with human CD34+ cord blood cells.
For assessment of mAb impacts on normal human immune cells, NSG-SGM3-CD34^+ fully engrafted humanized mice (>25% human CD45+ leukocytes in circulation) were purchased from Jackson Laboratory (stock #2523, Bar Harbor, ME). […] Absolute numbers of cell subpopulations were calculated, as well as percentages of each population subset as a percentage of total CD45^+ cells and total leukocyte gate.

[3] = test system: LAIR-1; assay: Ligand (collagen) mediated LAIR-1 signaling blockade in UT-140 reporter cells; format: cell-based, human
Procedure: FIGS. 24A-24C display h11B3 LAIR-1 mAbs, containing a variable light chain of SEQ ID NO: 16 and a variable heavy chain of SEQ ID NO:27, binds LAIR-1 and blocks its functional signaling triggered by collagen-I in UT-140 reporter cells. Seed 1e4 UT140 reporter cells/100 μl in 96-well flat bottom plate. LAIR1 signaling was induced by 10 μg/ml coated collagen treatment. Blocking of LAIR1 signaling by such h11B3 LAIR-1 mAbs was determined by addition of different concentrations of such h11B3 LAIR-1 mAbs in 100 μL per well. Cultures were maintained for 20 hours, and the GFP was read on flow cytometry.
FIGS. 25A-25B display h11B3 LAIR-1 mAbs, containing a variable light chain of SEQ ID NO: 16 and a variable heavy chain of SEQ ID NO:27, blocks collagen-1 signaling. […] Reporter activation was quantified by flow cytometry. […]
For cell binding assays, 5e4 UT-140 cells or mouse LAIR-1-transfected 293T cells per well were plated in 200 μL PBS in a 96-well round bottom plate, centrifuged for 4 minutes at 500×g for a single wash, and blocked for 10 minutes on ice with flow cytometry buffer (PBS+2% FBS+0.1 mM EDTA) containing 1:50 dilution of TruStain™ Fc block (Biolegend, San Diego, CA). […] Cells were then washed 3 times as previously described and binding was measured by flow cytometry using an Attune NXT flow cytometer. […] GFP expression was measured by flow cytometry using an Attune NXT Flow Cytometer.

B1: LAIR-1 mAb: humanized agonist anti-LAIR-1 mAb, IgG1 backbone; h11B3 VL-2 (SEQ ID NO: 16), h11B3 VH-3 (SEQ ID NO: 27) (antibody, V domains shown)
VH: EVQLVESGGGLVQPGGSLKLSCAASGFTFNTNAMYWVRQAPGKGLEWVGRIRSKSSNYATYYAASVKGRFTISRDDSKNTLYLQMNSLKTEDTAVYYCVRGGSGFFAYWGQGTLVTVSS
VL: DIQMTQSPSSLSASLGDRVTITCKASEDIYIRLAWYQQKPGKAPRLLISTATSLETGVPSRFSGSGSGTDYTFTISSLQPEDIATYYCQQYWSTPYTFGGGTRLEIK
modifications: IgG1 constant regions; Synthetic: h11B3 VH-3; Synthetic: h11B3 VL-2
[1]; day 22 post-engraftment
  AML cells (human CD45+ cells) in the bones: reduction
[1]; in bones but not the spleen
  anti-apoptotic BCL-XL: decreased levels
  anti-apoptotic uncleaved PARP: decreased levels
[2]; 100 μg/mouse (5 mg/kg) weekly for 4 weeks
  depletion, inhibition, or expansion of healthy human primary immune cells: no depletion, inhibition, or expansion
[2]; NSG mice reconstituted with healthy human CD34 stem cells
  effects on healthy immune cells in the spleen or the bone-marrow: minimal effects
[3]
  collagen binding to LAIR-1: blocks collagen binding

— patent US20240352121A1, “LAIR-1 AGONISTIC ANTIBODIES AND METHODS OF USE THEREOF” (NEXTCURE, INC., priority 2023, published 2024)
